Earlier results on seven molecules are cited in paper PMC11866755.

Holding throughout (assay): NMR
The target in data set [1] is Asp42 (UniProt position 63, KRGCADNCPKN).
Data set [2] deals with Asp59 (UniProt position 80, VCCSTDKCN--).
Data set [3] addresses Glu17 (UniProt position 38, YKTCPEGKNLC).
Data set [4] deals with His4 (UniProt position 25, YTLKCHNTQLP).
Data set [5] has as its target Asp101 (UniProt position 119, KKIVSDGNGMN).
Data set [6] deals with Asp119 (UniProt position 137, RCKGTDVQAWI).
The target of data set [7] is Asp18 (UniProt position 36, KRHGLDNYRGY).
Data set [8] concerns the target Asp48 (UniProt position 66, TNRNTDGSTDY).
The target in data set [9] is Asp52 (UniProt position 70, TDGSTDYGILQ).
Data set [10] deals with Asp66 (UniProt position 84, RWWCNDGRTPG).
The target of data set [11] is Asp87 (UniProt position 105, ALLSSDITASV).
The target of data set [12] is Glu35 (UniProt position 53, CAAKFESNFNT).
Data set [13] has as its target Glu7 (UniProt position 25, VFGRCELAAAM).
Data set [14] addresses His15 (UniProt position 33, AAMKRHGLDNY).
Data set [15] has as its target Asp40 (UniProt position 122, RLLLVDTPETK). The note with it: folded protein, ligand state not stated.
Data set [16] addresses Asp77 (UniProt position 159, IEVEFDKGQRT). The note with it: folded protein, ligand state not stated.
Data set [17] concerns the target Asp83 (UniProt position 165, KGQRTDKYGRG). The note with it: folded protein, ligand state not stated.
Data set [18] deals with Asp95 (UniProt position 177, AYIYADGKMVN). The note with it: folded protein, ligand state not stated.
For data set [19], the target named is Glu10 (UniProt position 92, KKLHKEPATLI). The note with it: folded protein, ligand state not stated.
Data set [20] concerns the target Glu101 (UniProt position 183, GKMVNEALVRQ). The note with it: folded protein, ligand state not stated.
The target of data set [21] is Glu122 (UniProt position 204, GNNTHEQLLRK). The note with it: folded protein, ligand state not stated.
In data set [22] the target is Glu129 (UniProt position 211, LLRKAEAQAKK). The note with it: folded protein, ligand state not stated.
Data set [23] deals with Glu135 (UniProt position 217, AQAKKEKLNIW). To be noted: folded protein, ligand state not stated.
The target in data set [24] is Glu43 (UniProt position 125, LVDTPETKHPK). The note with it: folded protein, ligand state not stated.
Data set [25] concerns the target Glu52 (UniProt position 134, PKKFNEKYGPE). To be noted: folded protein, ligand state not stated.
Data set [26] has as its target Glu57 (UniProt position 139, EKYGPEASAFT). To be noted: folded protein, ligand state not stated.
Data set [27] addresses Glu67 (UniProt position 149, TKKMVENAKKI). To be noted: folded protein, ligand state not stated.
Data set [28] has as its target Glu73 (UniProt position 155, NAKKIEVEFDK). To be noted: folded protein, ligand state not stated.
In data set [29] the target is Glu75 (UniProt position 157, KKIEVEFDKGQ). The note with it: folded protein, ligand state not stated.
In data set [30] the target is His121 (UniProt position 203, KGNNTHEQLLR). The note with it: folded protein, ligand state not stated.
Data set [31] concerns the target His8 (UniProt position 90, STKKLHKEPAT). To be noted: folded protein, ligand state not stated.
Data set [32] has as its target His2 (position 2, ----GHAHG--). To be noted: free peptide in solution.
Data set [33] concerns the target His4 (position 4, --GHAHG----). The note with it: free peptide in solution.
Data set [34] deals with Glu2 (position 2, ----GEAEG--). To be noted: free peptide in solution.
Data set [35] deals with Glu4 (position 4, --GEAEG----). To be noted: free peptide in solution.
Data set [36] concerns the target Glu4 (position 4, --GHAEG----). The note with it: free peptide in solution.
The target of data set [37] is His2 (position 2, ----GHAEG--). The note with it: free peptide in solution.
For data set [38], the target named is Glu2 (position 2, ----GEAHG--). To be noted: free peptide in solution.
Data set [39] concerns the target His4 (position 4, --GEAHG----). To be noted: free peptide in solution.

Usually pKa stands for the negative logarithm of the acid dissociation constant. Regarding “Cardiotoxin V (cytotoxin 5, CTX A5) (Naja atra (printed as Naja naja atra, Chinese/Taiwan cobra))”, the pKa was 3.2 in data set [1], below 2.0 in [2], 4.0 in [3] and 5.5 in data set [4].

Turning to “Hen egg-white lysozyme (HEWL) (Gallus gallus)”, the pKa in data set [5] is reported as 4.5 ±0.1; in data set [6], 3.5 ±0.3; in data set [7], 2.8 ±0.3; in [8], 1.4 ±0.2; in data set [9], 3.6 ±0.3; in data set [10], 1.2 ±0.2. For the same molecule, the pKa in data set [11] is 2.2 ±0.1; in data set [12], 6.1 ±0.4; in data set [13] it was 2.6 ±0.2; in data set [14], 5.5 ±0.2.

For the molecule “Staphylococcal nuclease Delta+PHS (printed as ΔPHS) (Staphylococcus aureus; G50F;V51N;P117G;H124L;S128A;del44-49)”, the pKa in data set [15] is given as 3.9; in data set [16] it was below 2.2; in [17], below 2.2; in data set [18], 2.2; in data set [19], 2.8; in [20] it was 3.8. For the same molecule, the pKa was 3.9 in [21]; 3.8 in data set [22]; 3.8 in [23]; 4.3 in data set [24]; 3.9 in data set [25]; 3.5 in [26]. Further, the pKa in [27] is reported as 3.58; in data set [28], 3.3; in data set [29], 3.3; in data set [30], 5.24; in [31], 6.5.

Regarding GHAHG [Pentapeptide GHAHG (synthetic)], the pKa is 6.23 in data set [32] and 6.66 in data set [33].

On to GEAEG [Pentapeptide GEAEG (synthetic)], for which the pKa in data set [34] is on record as 4.06; in data set [35] it was 4.04.

Regarding GHAEG [Pentapeptide GHAEG (synthetic)], the pKa is 3.81 in [36] and 6.14 in [37].

Regarding GEAHG [Pentapeptide GEAHG (synthetic)], the pKa in [38] is listed as 3.76; in data set [39] it was 6.59.
